Experimental data taken from publication PMC11574045, “A cofactor-induced repressive type of transcription factor condensation can be induced by synthetic peptides to suppress tumorigenesis” (The EMBO Journal, 2024).

B1: SIX2 (protein, UniProt Q9NPC8 1-291, looked up)
Homeobox protein SIX2: MSMLPTFGFTQEQVACVCEVLQQGGNIERLGRFLWSLPACEHLHKNESVLKAKAVVAFHRGNFRELYKILESHQFSPHNHAKLQQLWLKAHYIEAEKLRGRPLGAVGKYRVRRKFPLPRSIWDGEETSYCFKEKSRSVLREWYAHNPYPSPREKRELAEATGLTTTQVSNWFKNRRQRDRAAEAKERENNENSNSNSHNPLNGSGKSVLGSSEDEKTPSGTPDHSSSSPALLLSPPPPGLPSLHSLGHPPGPSAVPVPVPGGGGADPLQHHHGLQDSILNPMSANLVDLGS
B2: SCX (protein, UniProt Q7RTU7 1-201, looked up)
Basic helix-loop-helix …: MSFATLRPAPPGRYLYPEVSPLSEDEDRGSDSSGSDEKPCRVHAARCGLQGARRRAGGRRAGGGGPGGRPGREPRQRHTANARERDRTNSVNTAFTALRTLIPTEPADRKLSKIETLRLASSYISHLGNVLLAGEACGDGQPCHSGPAFFHAARAGSPPPPPPPPPARDGENTQPKQICTFCLSNQRKLSKDRDRKTAIRS
B3: SALL1 (protein, UniProt Q9NSC2 1-1324, looked up)
Sal-like protein 1: MSRRKQAKPQHFQSDPEVASLPRRDGDTEKGQPSRPTKSKDAHVCGRCCAEFFELSDLLLHKKNCTKNQLVLIVNENPASPPETFSPSPPPDNPDEQMNDTVNKTDQVDCSDLSEHNGLDREESMEVEAPVANKSGSGTSSGSHSSTAPSSSSSSSSSSGGGGSSSTGTSAITTSLPQLGDLTTLGNFSVINSNVIIENLQSTKVAVAQFSQEARCGGASGGKLAVPALMEQLLALQQQQIHQLQLIEQIRHQILLLASQNADLPTSSSPSQGTLRTSANPLSTLSSHLSQQLAAAAGLAQSLASQSASISGVKQLPPIQLPQSSSGNTIIPSNSGSSPNMNILAAAVTTPSSEKVASSAGASHVSNPAVSSSSSPAFAISSLLSPASNPLLPQQASANSVFPSPLPNIGTTAEDLNSLSALAQQRKSKPPNVTAFEAKSTSDEAFFKHKCRFCAKVFGSDSALQIHLRSHTGERPFKCNICGNRFSTKGNLKVHFQRHKEKYPHIQMNPYPVPEHLDNIPTSTGIPYGMSIPPEKPVTSWLDTKPVLPTLTTSVGLPLPPTLPSLIPFIKTEEPAPIPISHSATSPPGSVKSDSGGPESATRNLGGLPEEAEGSTLPPSGGKSEESGMVTNSVPTASSSVLSSPAADCGPAGSATTFTNPLLPLMSEQFKAKFPFGGLLDSAQASETSKLQQLVENIDKKATDPNECIICHRVLSCQSALKMHYRTHTGERPFKCKICGRAFTTKGNLKTHYSVHRAMPPLRVQHSCPICQKKFTNAVVLQQHIRMHMGGQIPNTPVPDSYSESMESDTGSFDEKNFDDLDNFSDENMEDCPEGSIPDTPKSADASQDSLSSSPLPLEMSSIAALENQMKMINAGLAEQLQASLKSVENGSIEGDVLTNDSSSVGGDMESQSAGSPAISESTSSMQALSPSNSTQEFHKSPSIEEKPQRAVPSEFANGLSPTPVNGGALDLTSSHAEKIIKEDSLGILFPFRDRGKFKNTACDICGKTFACQSALDIHYRSHTKERPFICTVCNRGFSTKGNLKQHMLTHQMRDLPSQLFEPSSNLGPNQNSAVIPANSLSSLIKTEVNGFVHVSPQDSKDTPTSHVPSGPLSSSATSPVLLPALPRRTPKQHYCNTCGKTFSSSSALQIHERTHTGEKPFACTICGRAFTTKGNLKVHMGTHMWNSTPARRGRRLSVDGPMTFLGGNPVKFPEMFQKDLAARSGSGDPSSFWNQYAAALSNGLAMKANEISVIQNGGIPPIPGSLGSGNSSPVSGLTGNLERLQNSEPNAPLAGLEKMASSENGTNFRFTRFVEDSKEIVTS
B4: SIX1 (protein, UniProt Q15475 1-284, looked up)
Homeobox protein SIX1: MSMLPSFGFTQEQVACVCEVLQQGGNLERLGRFLWSLPACDHLHKNESVLKAKAVVAFHRGNFRELYKILESHQFSPHNHPKLQQLWLKAHYVEAEKLRGRPLGAVGKYRVRRKFPLPRTIWDGEETSYCFKEKSRGVLREWYAHNPYPSPREKRELAEATGLTTTQVSNWFKNRRQRDRAAEAKERENTENNNSSSNKQNQLSPLEGGKPLMSSSEEEFSPPQSPDQNSVLLLQGNMGHARSSNYSLPGLTASQPSHGLQTHQHQLQDSLLGPLTSSLVDLGS
B5: SIRT2 (protein, UniProt Q8IXJ6 2-389, looked up)
NAD-dependent protein …: AEPDPSHPLETQAGKVQEAQDSDSDSEGGAAGGEADMDFLRNLFSQTLSLGSQKERLLDELTLEGVARYMQSERCRRVICLVGAGISTSAGIPDFRSPSTGLYDNLEKYHLPYPEAIFEISYFKKHPEPFFALAKELYPGQFKPTICHYFMRLLKDKGLLLRCYTQNIDTLERIAGLEQEDLVEAHGTFYTSHCVSASCRHEYPLSWMKEKIFSEVTPKCEDCQSLVKPDIVFFGESLPARFFSCMQSDFLKVDLLLVMGTSLQVQPFASLISKAPLSTPRLLINKEKAGQSDPFLGMIMGLGGGMDFDSKKAYRDVAWLGECDQGCLALAELLGWKKELEDLVRREHASIDAQSGAGVPNPSTSASPKKSPPPAKDEARTTEREKPQ
B6: SCRT1 (protein, UniProt Q99M85 1-348, looked up)
Transcriptional repressor …: MPRSFLVKKVKLDTFSSADLDSSYGRARSDLGVRLQDKGYLSDYVGPASVYDGDAEAALLKGPSPEPMYAAAVRGELGPAASGSAPPPTPRPELATAAGGYINGDAAVSEGYAADAFFITDGRSRRKAANANAAAAPSTASVAAPDSDAGGGGGPGTRGSGSGSASRGGTRVGAGTEARAGSGATGAGGRHACGECGKTYATSSNLSRHKQTHRSLDSQLARRCPTCGKVYVSMPAMAMHLLTHDLRHKCGVCGKAFSRPWLLQGHMRSHTGEKPFGCAHCGKAFADRSNLRAHMQTHSAFKHFQCKRCKKSFALKSYLNKHYESACFKGGASGPATPAPPQLSPVQA
B7: SETD8 (protein, UniProt Q9NQR1 1-393, looked up)
N-lysine methyltransferase …: MGEGGAAAALVAAAAAAAAAAAAVVAGQRRRRLGRRARCHGPGRAAGGKMSKPCAVEAAAAAVAATAPGPEMVERRGPGRPRTDGENVFTGQSKIYSYMSPNKCSGMRFPLQEENSVTHHEVKCQGKPLAGIYRKREEKRNAGNAVRSAMKSEEQKIKDARKGPLVPFPNQKSEAAEPPKTPPSSCDSTNAAIAKQALKKPIKGKQAPRKKAQGKTQQNRKLTDFYPVRRSSRKSKAELQSEERKRIDELIESGKEEGMKIDLIDGKGRGVIATKQFSRGDFVVEYHGDLIEITDAKKREALYAQDPSTGCYMYYFQYLSKTYCVDATRETNRLGRLINHSKCGNCQTKLHDIDGVPHLILIASRDIAAGEELLYDYGDRSKASIEAHPWLKH
B8: SCAND1 (protein, UniProt P57086 1-179, looked up)
SCAN domain-containing …: MAATEPILAATGSPAAVPPEKLEGAGSSSAPERNCVGSSLPEASPPAPEPSSPNAAVPEAIPTPRAAASAALELPLGPAPVSVAPQAEAEARSTPGPAGSRLGPETFRQRFRQFRYQDAAGPREAFRQLRELSRQWLRPDIRTKEQIVEMLVQEQLLAILPEAARARRIRRRTDVRITG
B9: SETD7 (protein, UniProt Q8WTS6 1-366, looked up)
Histone-lysine …: MDSDDEMVEEAVEGHLDDDGLPHGFCTVTYSSTDRFEGNFVHGEKNGRGKFFFFDGSTLEGYYVDDALQGQGVYTYEDGGVLQGTYVDGELNGPAQEYDTDGRLIFKGQYKDNIRHGVCWIYYPDGGSLVGEVNEDGEMTGEKIAYVYPDERTALYGKFIDGEMIEGKLATLMSTEEGRPHFELMPGNSVYHFDKSTSSCISTNALLPDPYESERVYVAESLISSAGEGLFSKVAVGPNTVMSFYNGVRITHQEVDSRDWALNGNTLSLDEETVIDVPEPYNHVSKYCASLGHKANHSFTPNCIYDMFVHPRFGPIKCIRTLRAVEADEELTVAYGYDHSPPGKSGPEAPEWYQVELKAFQATQQK
B10: SIM1 (protein, UniProt P81133 1-766, looked up)
Single-minded homolog 1: MKEKSKNAARTRREKENSEFYELAKLLPLPSAITSQLDKASIIRLTTSYLKMRVVFPEGLGEAWGHSSRTSPLDNVGRELGSHLLQTLDGFIFVVAPDGKIMYISETASVHLGLSQVELTGNSIYEYIHPADHDEMTAVLTAHQPYHSHFVQEYEIERSFFLRMKCVLAKRNAGLTCGGYKVIHCSGYLKIRQYSLDMSPFDGCYQNVGLVAVGHSLPPSAVTEIKLHSNMFMFRASLDMKLIFLDSRVAELTGYEPQDLIEKTLYHHVHGCDTFHLRCAHHLLLVKGQVTTKYYRFLAKHGGWVWVQSYATIVHNSRSSRPHCIVSVNYVLTDTEYKGLQLSLDQISASKPAFSYTSSSTPTMTDNRKGAKSRLSSSKSKSRTSPYPQYSGFHTERSESDHDSQWGGSPLTDTASPQLLDPADRPGSQHDASCAYRQFSDRSSLCYGFALDHSRLVEERHFHTQACEGGRCEAGRYFLGTPQAGREPWWGSRAALPLTKASPESREAYENSMPHIASVHRIHGRGHWDEDSVVSSPDPGSASESGDRYRTEQYQSSPHEPSKIETLIRATQQMIKEEENRLQLRKAPSDQLASINGAGKKHSLCFANYQQPPPTGEVCHGSALANTSPCDHIQQREGKMLSPHENDYDNSPTALSRISSPNSDRISKSSLILAKDYLHSDISPHQTAGDHPTVSPNCFGSHRQYFDKHAYTLTGYALEHLYDSETIRNYSLGCNGSHFDVTSHLRMQPDPAQGHKGTSVIITNGS
B11: BCL11A (protein, UniProt Q9H165 1-835, looked up)
BCL11 transcription factor A: MSRRKQGKPQHLSKREFSPEPLEAILTDDEPDHGPLGAPEGDHDLLTCGQCQMNFPLGDILIFIEHKRKQCNGSLCLEKAVDKPPSPSPIEMKKASNPVEVGIQVTPEDDDCLSTSSRGICPKQEHIADKLLHWRGLSSPRSAHGALIPTPGMSAEYAPQGICKDEPSSYTCTTCKQPFTSAWFLLQHAQNTHGLRIYLESEHGSPLTPRVGIPSGLGAECPSQPPLHGIHIADNNPFNLLRIPGSVSREASGLAEGRFPPTPPLFSPPPRHHLDPHRIERLGAEEMALATHHPSAFDRVLRLNPMAMEPPAMDFSRRLRELAGNTSSPPLSPGRPSPMQRLLQPFQPGSKPPFLATPPLPPLQSAPPPSQPPVKSKSCEFCGKTFKFQSNLVVHRRSHTGEKPYKCNLCDHACTQASKLKRHMKTHMHKSSPMTVKSDDGLSTASSPEPGTSDLVGSASSALKSVVAKFKSENDPNLIPENGDEEEEEDDEEEEEEEEEEEEELTESERVDYGFGLSLEAARHHENSSRGAVVGVGDESRALPDVMQGMVLSSMQHFSEAFHQVLGEKHKRGHLAEAEGHRDTCDEDSVAGESDRIDDGTVNGRGCSPGESASGGLSKKLLLGSPSSLSPFSKRIKLEKEFDLPPAAMPNTENVYSQWLAGYAASRQLKDPFLSFGDSRQSPFASSSEHSSENGSLRFSTPPGELDGGISGRSGTGSGGSTPHISGPGPGRPSSKEGRRSDTCEYCGKVFKNCSNLTVHRRSHTGERPYKCELCNYACAQSSKLTRHMKTHGQVGKDVYKCEICKMPFSVYSTLEKHMKKWHSDRVLNNDIKTE

System: HEK293FT cells transfected with TF library
Test: Screening of TF condensates based on fluorescent puncta
Format: cell-based
Details: Figure 1B numerical data; TF library screen, one value per transcriptional factor
In short: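 Puncta scoring used automated confocal imaging of fifty random fields per well, after anti-Flag or anti-GAL4 immunofluorescence (Alexa 488) in PFA-fixed cells. HEK293FT cells carried TF library plasmids delivered with PEI (1.6 μg/ml DNA). At 60 h they were switched for 12 h to glucose-containing or glucose-free medium.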

Row | Molecule | Z score of condensed fraction
1 | B1 | -0.1884
2 | B2 | -0.06618
3 | B3 | -0.9814
4 | B4 | -0.6669
5 | B5 | 0.4793
6 | B6 | 0.5906
7 | B7 | -0.8816
8 | B8 | -0.8992
9 | B9 | 0.4495
10 | B10 | -1.099
11 | B11 | -0.5173
